Measured values: US20120077731A1 (Ablynx, published 2012)

Legend:
Cyno plasma sIL-6R [1] = biological target: T1, Cyno plasma sIL-6R (cynomolgus monkey, UniProt A0A2K5WN54 60-396); experiment: plasma potency ELISA, human against cyno plasma
T1 construct: also called cynomolgus sIL-6R
T1 sequence: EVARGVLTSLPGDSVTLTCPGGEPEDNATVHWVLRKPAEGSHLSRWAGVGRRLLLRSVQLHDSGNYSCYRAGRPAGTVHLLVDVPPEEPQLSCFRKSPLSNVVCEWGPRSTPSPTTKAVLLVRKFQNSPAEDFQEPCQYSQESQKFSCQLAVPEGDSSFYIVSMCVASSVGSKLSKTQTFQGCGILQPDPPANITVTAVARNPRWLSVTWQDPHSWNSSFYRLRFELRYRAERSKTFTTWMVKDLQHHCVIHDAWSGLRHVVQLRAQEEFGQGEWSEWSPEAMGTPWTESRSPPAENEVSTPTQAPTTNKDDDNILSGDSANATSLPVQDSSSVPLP

Cyno plasma sIL-6R [2] = biological target: T1, Cyno plasma sIL-6R; experiment: plasma potency ELISA, cyno plasma
Human soluble IL-6R [3] = biological target: T2, Human soluble IL-6R (human, UniProt P08887 20-358); experiment: Biacore T100
T2 construct: Soluble recombinant form; biotinylated in some assays; also called hIL-6R; human IL-6R
T2 sequence (looked up): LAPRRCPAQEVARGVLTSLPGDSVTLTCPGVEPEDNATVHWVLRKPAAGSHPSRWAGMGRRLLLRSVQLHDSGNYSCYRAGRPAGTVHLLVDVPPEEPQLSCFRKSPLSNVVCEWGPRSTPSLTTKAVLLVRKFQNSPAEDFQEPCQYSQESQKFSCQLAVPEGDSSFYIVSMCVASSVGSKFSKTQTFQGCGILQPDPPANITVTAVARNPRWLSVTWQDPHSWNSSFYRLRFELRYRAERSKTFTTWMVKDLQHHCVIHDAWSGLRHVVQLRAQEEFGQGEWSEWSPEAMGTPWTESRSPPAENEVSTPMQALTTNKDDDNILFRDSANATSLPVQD

Human soluble IL-6R [4] = biological target: T2, Human soluble IL-6R; experiment: ELISA, IL6R20A11 on biotinylated human sIL-6R on neutravidin plate
[5] = biological target: T3, Human membrane IL-6R on cells (human, UniProt P08887 20-468); experiment: flow cytometry, human PBL, lymphocytes donor 2
T3 construct: whole, on cells; also called cell-surface expressed human IL-6R
T3 sequence (looked up): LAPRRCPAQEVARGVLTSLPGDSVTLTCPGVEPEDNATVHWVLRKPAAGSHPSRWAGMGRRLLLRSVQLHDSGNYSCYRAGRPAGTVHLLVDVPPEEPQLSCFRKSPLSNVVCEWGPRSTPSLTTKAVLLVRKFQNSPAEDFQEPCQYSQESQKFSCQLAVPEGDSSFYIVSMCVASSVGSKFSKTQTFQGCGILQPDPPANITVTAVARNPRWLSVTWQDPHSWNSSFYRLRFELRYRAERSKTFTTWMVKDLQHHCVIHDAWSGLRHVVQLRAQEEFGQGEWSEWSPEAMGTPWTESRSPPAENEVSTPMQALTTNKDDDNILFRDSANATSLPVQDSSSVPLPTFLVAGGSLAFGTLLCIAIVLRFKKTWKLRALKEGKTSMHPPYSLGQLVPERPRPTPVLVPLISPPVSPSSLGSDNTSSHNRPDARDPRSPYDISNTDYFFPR
Method: (§1) The Nanobodies were incubated in EDTA-treated blood from 2 donors and bound Nanobody was detected by flow cytometry. Lymphocytes, monocytes and granulocytes were gated based on FSC/SSC properties (FIG. 40) and bound Nanobodies were detected in the PE channel.

Human plasma sIL-6R [6] = biological target: T4, Human plasma sIL-6R (human, UniProt P08887 20-355, limits assumed); experiment: plasma potency ELISA, human plasma, normal IL-6 (EC50)
T4 construct: also called plasma-derived human IL-6R
T4 sequence (looked up): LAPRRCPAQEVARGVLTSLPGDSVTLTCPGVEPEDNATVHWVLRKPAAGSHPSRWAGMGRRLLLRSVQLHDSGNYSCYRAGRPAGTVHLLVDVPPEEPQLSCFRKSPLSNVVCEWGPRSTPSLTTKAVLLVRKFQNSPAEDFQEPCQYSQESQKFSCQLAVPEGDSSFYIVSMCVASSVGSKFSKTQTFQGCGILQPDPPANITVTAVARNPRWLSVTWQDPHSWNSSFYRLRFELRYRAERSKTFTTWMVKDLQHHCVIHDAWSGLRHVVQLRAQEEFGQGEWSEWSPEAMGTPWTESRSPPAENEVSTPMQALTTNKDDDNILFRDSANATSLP

[7] = biological target: T3, Human membrane IL-6R on cells; experiment: flow cytometry, CHO cells expressing human IL-6R, 4PL fit
[8] = biological target: T3, Human membrane IL-6R on cells; experiment: flow cytometry, human PBL, lymphocytes donor 1
Method: as §1

Human plasma sIL-6R [9] = biological target: T4, Human plasma sIL-6R; experiment: plasma potency assay, human plasma, 42 nM IL6; blocked ligand IL-6
Method: All 5 affinity matured Nanobodies and the sequence optimized Nanobody were also tested in a plasma potency assay. […] TMB was used as substrate.

Mouse IL-6R = biological target: T5, Mouse IL-6R (mouse, UniProt P22272 20-364, limits assumed); experiment: competition ELISA: IL6R20A11 (0.4 nM) pre-incubated with a series of recombinant mouse sIL-6R; free IL6R20A11 captured on biotinylated human sIL-6R on neutravidin
T5 construct: also called mouse sIL-6R
T5 sequence (looked up): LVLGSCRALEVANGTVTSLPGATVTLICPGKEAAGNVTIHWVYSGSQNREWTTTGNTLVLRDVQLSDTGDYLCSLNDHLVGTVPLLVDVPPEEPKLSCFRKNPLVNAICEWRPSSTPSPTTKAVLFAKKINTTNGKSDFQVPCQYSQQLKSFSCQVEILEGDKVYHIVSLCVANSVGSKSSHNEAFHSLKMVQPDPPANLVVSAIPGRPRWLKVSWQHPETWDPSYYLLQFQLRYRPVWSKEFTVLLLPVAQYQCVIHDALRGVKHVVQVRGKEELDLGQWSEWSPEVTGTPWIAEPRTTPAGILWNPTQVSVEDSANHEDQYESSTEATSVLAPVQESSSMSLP

Human plasma sIL-6R [10] = biological target: T4, Human plasma sIL-6R; experiment: plasma potency ELISA, human plasma
[11] = biological target: T3, Human membrane IL-6R on cells; experiment: flow cytometry, human PBL, granulocytes donor 2
Method: as §1

[12] = biological target: T3, Human membrane IL-6R on cells; experiment: cell-based or functional assay
Human plasma sIL-6R [13] = biological target: T4, Human plasma sIL-6R; experiment: plasma potency ELISA, human plasma; remark: listed apart in the source

Ratio (human/cyno) of IC50 (Cyno plasma sIL-6R [1]): 1.69
IC50 (Cyno plasma sIL-6R [2]): 0.117 nM
Kd (Human soluble IL-6R [3]): 0.019 nM
EC50 (Human soluble IL-6R [4]): 0.35 nM
EC50 [5]: 2.92 nM
IC50 (Human plasma sIL-6R [6]): 0.198 nM
EC50 [7]: 1.4 nM
EC50 [8]: 3.65 nM
IC50 (read off the curve) (Human plasma sIL-6R [9]): ~0.4 nM
IC50 (Human plasma sIL-6R [10]): 0.198 nM
EC50 [11]: 5.61 nM
IC50, TF1 assay [12]: 0.4 nM
Ratio (high/low) of IC50 (Human plasma sIL-6R [13]): 1.8
B1: PMP20A11 (VHH)
VHH: EVQLVESGGGLVQPGGSLRLSCAASGSVFKINVMAWYRQAPGKGRELVAGIISGGSTSYADSVKGRFTISRDNAKNTLYLQMNSLRPEDTAVYYCAFITTESDYDLGRRYWGQGTLVTVSS
notes: also called IL6R20A11; IL6R300; not shown: c-myc and (His)6 tags
binding result (Mouse IL-6R): no binding (tested: about 200 ng/mL (log conc 2.3))
